Data from patent publication US20130102494A1 (PIERRE FABRE MEDICAMENT, published 2013).
Each block holds one binder with its values, some of them ahead of it.

Molecular target: T1, dimeric cMet-Fc recombinant protein (rh cMet-Fc, R&D Systems ref. 358-MT/CF) (human, UniProt P08581 25-932)
T1 construct: extracellular domain; Bought reagent; also called cMet extracellular domain fusion protein; recombinant human cMet protein; not shown: Fc part
Experiment: ELISA on coated dimeric cMet-Fc
Procedure: Obtained hybridomas were initially screened by ELISA on the dimeric cMet-Fc recombinant protein. Briefly, the recombinant human cMet protein was coated overnight at 4° C. to Immulon II 96-well plates and, after a 1 h blocking step with a 0.5% gelatine solution, pure hybridoma supernatant was added for an additional 1 h at 37° C. Then plates were washed and a goat anti-mouse (Jackson) specific IgG HRP was added for 1 h at 37° C. Reaction development was performed using the TMB substrate solution. Then a second screen was performed by FACS analysis on […] cell line, that express moderate to high levels of cMet, to be sure that the produced antibodies will be able to also recognize the native receptor on tumor cells. For that purpose 2×10⁵ cells were incubated with either 10 μg/ml of m205A5, m227D3 or m10D₉ (IgG1 isotype control Mab) for 20 min at 4° C. After 3 washing in phosphate-buffered saline (PBS) supplemented with 1% BSA and 0.01% NaN₃, cells were incubated with secondary antibody Goat anti-mouse Alexa 488 (dilution 1/500) for 20 minutes at 4° C. After 3 additional washings in PBS supplemented with 1% BSA and 0.1% NaN₃, cells were analyzed by FACS (Facscalibur, Becton-Dickinson). At least 5000 cells were assessed to calculate the mean value of fluorescence intensity.

T1 sequence (P08581 25-932): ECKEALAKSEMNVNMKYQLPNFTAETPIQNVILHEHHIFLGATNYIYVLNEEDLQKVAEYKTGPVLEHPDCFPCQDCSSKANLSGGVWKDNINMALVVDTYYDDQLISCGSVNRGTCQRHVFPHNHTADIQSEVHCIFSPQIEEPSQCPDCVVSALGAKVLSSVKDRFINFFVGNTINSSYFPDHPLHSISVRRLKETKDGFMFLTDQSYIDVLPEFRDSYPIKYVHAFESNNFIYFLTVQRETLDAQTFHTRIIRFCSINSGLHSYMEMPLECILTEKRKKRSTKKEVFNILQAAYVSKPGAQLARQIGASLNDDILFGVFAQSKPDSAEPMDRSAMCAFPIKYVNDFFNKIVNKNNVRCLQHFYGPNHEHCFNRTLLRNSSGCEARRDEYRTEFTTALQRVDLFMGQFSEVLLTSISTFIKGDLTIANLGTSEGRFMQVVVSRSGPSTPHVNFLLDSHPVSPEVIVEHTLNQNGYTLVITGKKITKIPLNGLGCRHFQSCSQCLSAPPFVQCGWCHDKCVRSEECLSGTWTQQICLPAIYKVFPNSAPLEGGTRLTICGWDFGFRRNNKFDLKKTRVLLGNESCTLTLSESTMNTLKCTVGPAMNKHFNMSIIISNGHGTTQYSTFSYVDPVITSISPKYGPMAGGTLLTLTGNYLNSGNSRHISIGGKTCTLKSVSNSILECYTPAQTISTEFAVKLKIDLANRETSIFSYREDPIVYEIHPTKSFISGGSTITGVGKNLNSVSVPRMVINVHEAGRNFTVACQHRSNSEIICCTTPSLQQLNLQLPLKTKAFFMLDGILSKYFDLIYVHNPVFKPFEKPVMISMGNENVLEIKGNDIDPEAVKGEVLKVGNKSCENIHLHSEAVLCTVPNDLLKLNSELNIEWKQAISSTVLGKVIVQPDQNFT

- binding result: binds
B1: 227D3 monoclonal antibody (murine, secreted by hybridoma CNCM I-4247) (antibody, V domains shown)
VH: EVKLVESGGDLVKPGGSLQLSCAASGFTFSSYAMSWVRQTPEMRLEWVASIMGGGTTYYPDSVKGRFTISRDIARNILNLQMSSLRSEDTAIYYCARGRDYGIRSYAMDYWGQGTSVTVSS
VL: DIVMTQAAFSNPVTLGTSVSISCRSSKSLLHSNGITYLYWYLQKPGQSPQLLIYQMSNLASGVPDRFSSSGSGTDFTLRISRVEAEDVGVYYCAQNLELPYTFGGGTKLEIK
notes: Whole murine monoclonal antibody from hybridoma; mouse IgG1 isotype controls were used beside it; also called m227D3; 227D3 Mab

- binding result: binds
B2: 205A5 monoclonal antibody (murine, secreted by hybridoma CNCM I-4246) (antibody, V domains shown)
VH: QVQLKQSGPGLVQPSQSLSITCTVSGFSLTDYGIQWVRQSPGQGLEWLGVIWRGGSTDYNAPFMSRLSITKDNSKSQVFFRMNSLQADDTAIYYCATSYYRYDGPFTYWGQGTLVTVSA
VL: NIVLTQSPASLAVSLGQRATISCRASESVDSNGNSFIHWYQQKPGQPPKLLIYVASKLESGVPARFSGSGSRTDFTLTIDPVEAEDVATYYCQQNNEYPLTFGAGTKLELK
notes: Whole murine monoclonal antibody from hybridoma; mouse IgG1 isotype controls were used beside it; also called m205A5; 205A5 Mab
